Among the data in article PMC9120031 are fold increase of Rab7 co-precipitated with a3 when V5-Mon1A and V5-Ccz1 were exogenously expressed, against without them values, retold here.

For the experiment, the target named is FLAG-tagged V-ATPase a3 subunit (full-length) (UniProt Q9JHF5). The experiment can be described thus: co-IP; FLAG- and V5-tagged proteins co-expressed in HEK293T cells; lysed 48 h after transfection in IP buffer (1% Triton X-100, 10% glycerol, 50 mM Tris-HCl pH 7.4, 150 mM NaCl, 1 mM dithiothreitol, 1 mM EDTA); precipitated with anti-FLAG antibody; western blot with anti-V5 (or anti-A subunit) antibody.
Sequence of UniProt Q9JHF5 (Q9JHF5 entry or part of it): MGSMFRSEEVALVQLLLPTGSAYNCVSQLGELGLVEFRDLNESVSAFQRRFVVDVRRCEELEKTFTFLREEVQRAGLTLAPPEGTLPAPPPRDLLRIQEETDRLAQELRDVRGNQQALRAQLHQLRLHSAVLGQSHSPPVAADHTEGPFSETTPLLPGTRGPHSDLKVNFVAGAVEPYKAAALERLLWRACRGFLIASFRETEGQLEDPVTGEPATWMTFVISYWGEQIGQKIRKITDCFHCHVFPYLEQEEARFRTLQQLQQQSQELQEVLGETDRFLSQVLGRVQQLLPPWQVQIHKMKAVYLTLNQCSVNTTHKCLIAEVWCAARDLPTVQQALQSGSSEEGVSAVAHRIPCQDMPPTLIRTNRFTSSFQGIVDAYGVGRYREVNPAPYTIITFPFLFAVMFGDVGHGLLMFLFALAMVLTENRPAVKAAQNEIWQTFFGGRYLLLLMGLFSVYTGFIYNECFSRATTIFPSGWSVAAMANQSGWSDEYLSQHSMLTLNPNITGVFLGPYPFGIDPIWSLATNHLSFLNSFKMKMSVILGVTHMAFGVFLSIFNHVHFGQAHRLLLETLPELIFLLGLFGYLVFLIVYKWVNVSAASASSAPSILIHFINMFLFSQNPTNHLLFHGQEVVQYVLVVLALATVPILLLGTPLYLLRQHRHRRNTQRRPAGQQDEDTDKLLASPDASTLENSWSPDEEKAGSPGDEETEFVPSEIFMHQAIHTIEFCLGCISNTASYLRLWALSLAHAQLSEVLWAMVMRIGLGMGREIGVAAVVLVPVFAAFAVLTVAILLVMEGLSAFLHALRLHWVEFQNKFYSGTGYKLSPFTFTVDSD

“V5-tagged GDP-fixed form of Rab7(T22N) (from UniProt P51150 1-207) (natural protein)” displayed a fold increase of Rab7 co-precipitated with a3 when V5-Mon1A and V5-Ccz1 were exogenously expressed, against without them of 3 fold.
